Earlier results, collected in patent US20220033450A1, “VIRALLY EXPRESSED INHIBITORS OF PDZ DOMAINS, SUCH AS PICK1 AND USES THEREOF” (University of Copenhagen, priority 2018, published 2022).

Molecular target: T1, PDZ3 of PSD-95 (Homo sapiens, UniProt P78352)
T1 construct: specificity towards PDZ3 over PDZ 1 and 2 in PSD-95 (Toto et al. 2016)
Settings: Toto et al. 2016; 'supposedly'

T1 sequence (P78352 313-393 limits assumed): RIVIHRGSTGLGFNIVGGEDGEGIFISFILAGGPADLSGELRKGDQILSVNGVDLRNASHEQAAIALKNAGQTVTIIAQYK

Substance: YKQTSV
- specificity towards PDZ3 over PDZ 1 and 2 in PSD-95: > 15 fold
